# Source: patent publication US20260174880
# B1: BTK-FLAG (Bruton's Tyrosine Kinase, FLAG-tagged, expressed in HEK293T cells and treated with BTK-BRD4 PHICS) (protein)
# chain: MAAVILESIFLKRSQQKKKTSPLNFKKRLFLLTVHKLSYYEYDFERGRRGSKKGSIDVEKITCVETVVPEKNPPPERQIPRRGEESSEMEQISIIERFPYPFQVVYDEGPLYVFSPTEELRKRWIHQLKNVIRYNSDLVQKYHPCFWIDGQYLCCSQTAKNAMGCQILENRNGSLKPGSSHRKTKKPLPPTPEEDQILKKPLPPEPAAAPVSTSELKKVVALYDYMPMNANDLQLRKGDEYFILEESNLPWWRARDKNGQEGYIPSNYVTEAEDSIEMYEWYSKHMTRSQAEQLLKQEGKEGGFIVRDSSKAGKYTVSVFAKSTGDPQGVIRHYVVCSTPQSQYYLAEKHLFSTIPELINYHQHNSAGLISRLKYPVSQQNKNAPSTAGLGYGSWEIDPKDLTFLKELGTGQFGVVKYGKWRGQYDVAIKMIKEGSMSEDEFIEEAKVMMNLSHEKLVQLYGVCTKQRPIFIITEYMANGCLLNYLREMRHRFQTQQLLEMCKDVCEAMEYLESKQFLHRDLAARNCLVNDQGVVKVSDFGLSRYVLDDEYTSSVGSKFPVRWSPPEVLMYSKFSSKSDIWAFGVLMWEIYSLGKMPYERFTNSETAEHIAQGLRLYRPHLASEKVYTIMYSCWHEKADERPTFKILLSNILDVMDEES
# Molecular target: cytosolically localized BRD4 (lacks NLS), O60885
protein,measurement,value
B1,BRD4 phosphorylation (pBRD4 immunoblot) [panel B],clear pBRD4 band in lane PHICS; no visible band in lanes DMSO and iPHICS; total BRD4 alike in all lanes
same,BRD4 phosphorylation (pBRD4 immunoblot) [panel C],strongest pBRD4 band in lane PHICS; weak bands in lanes DMSO and iPHICS; total BRD4 alike in all lanes
same,BRD4 phosphorylation (pBRD4 immunoblot) [panel F],clear pBRD4 band in lane 5; barely visible signal in lanes DMSO and 6; total BRD4 alike in all lanes
same,BRD4 phosphorylation (pBRD4 immunoblot) [panel G],clear pBRD4 band in lane 7; no visible band in lanes DMSO and 8; total BRD4 alike in all lanes
